Data: publication PMC4989220, “The role of Rab6a and phosphorylation of non-muscle myosin IIA tailpiece in alcohol-induced Golgi disorganization” (Scientific Reports, 2016)

Biological target: the molecule itself
Assay: Western blot of Golgi membrane fraction (dimer band); Rab6a Western blot of the Golgi fraction (sucrose gradient) from control VA-13 cells and hepatocytes from control rats

B1: Rab6a GTPase (natural protein, UniProt P20340 1-208, looked up)
chain: MSTGGDFGNPLRKFKLVFLGEQSVGKTSLITRFMYDSFDNTYQATIGIDFLSKTMYLEDRTVRLQLWDTAGQERFRSLIPSYIRDSTVAVVVYDITNVNSFQQTTKWIDDVRTERGSDVIIMLVGNKTDLADKRQVSIEEGERKAKELNVMFIETSAKAGYNVKQLFRRVAAALPGMESTQDRSREDMIDIKLEKPQEQPVSEGGCSC
notes: Rab6a GTPase, endogenous in VA-13 cells (HepG2 cells expressing ADH); source: endogenous, VA-13 cells (lysate, Golgi fraction, fixed cells)
stoichiometry N: 2

B2: Rab6a GTPase (rat hepatocytes) (natural protein, rat (endogenous in primary hepatocytes), UniProt Q9WVB1 1-208, looked up)
chain: MSAGGDFGNPLRKFKLVFLGEQSVGKTSLITRFMYDSFDNTYQATIGIDFLSKTMYLEDRTVRLQLWDTAGQERFRSLIPSYIRDSTVAVVVYDITNVNSFQQTTKWIDDVRTERGSDVIIMLVGNKTDLADKRQVSIEEGERKAKELNVMFIETSAKAGYNVKQLFRRVAAALPGMESTQDRSREDMIDIKLEKPQEQPVNEGGCSC
notes: Rab6a, endogenous in hepatocytes of male Wistar rats; source: endogenous, primary rat hepatocytes (fixed cells, Golgi fraction)
stoichiometry N: 2
